According to article PMC9165289, “Theranostic PSMA ligands with optimized backbones for intraoperative multimodal imaging and photodynamic therapy of prostate cancer” (European Journal of Nuclear Medicine and Molecular Imaging, 2022):
Where two headings read alike, the source gives them in different places.

Experiments:
PSMA = target: T1, PSMA (Homo sapiens, UniProt Q04609); experiment: competitive binding assay using LS174T-PSMA cells
T1 construct: expressed in transfected cells; host or cells: LS174T colon carcinoma cells (LS174T-PSMA)
T1 sequence (Q04609 whole entry): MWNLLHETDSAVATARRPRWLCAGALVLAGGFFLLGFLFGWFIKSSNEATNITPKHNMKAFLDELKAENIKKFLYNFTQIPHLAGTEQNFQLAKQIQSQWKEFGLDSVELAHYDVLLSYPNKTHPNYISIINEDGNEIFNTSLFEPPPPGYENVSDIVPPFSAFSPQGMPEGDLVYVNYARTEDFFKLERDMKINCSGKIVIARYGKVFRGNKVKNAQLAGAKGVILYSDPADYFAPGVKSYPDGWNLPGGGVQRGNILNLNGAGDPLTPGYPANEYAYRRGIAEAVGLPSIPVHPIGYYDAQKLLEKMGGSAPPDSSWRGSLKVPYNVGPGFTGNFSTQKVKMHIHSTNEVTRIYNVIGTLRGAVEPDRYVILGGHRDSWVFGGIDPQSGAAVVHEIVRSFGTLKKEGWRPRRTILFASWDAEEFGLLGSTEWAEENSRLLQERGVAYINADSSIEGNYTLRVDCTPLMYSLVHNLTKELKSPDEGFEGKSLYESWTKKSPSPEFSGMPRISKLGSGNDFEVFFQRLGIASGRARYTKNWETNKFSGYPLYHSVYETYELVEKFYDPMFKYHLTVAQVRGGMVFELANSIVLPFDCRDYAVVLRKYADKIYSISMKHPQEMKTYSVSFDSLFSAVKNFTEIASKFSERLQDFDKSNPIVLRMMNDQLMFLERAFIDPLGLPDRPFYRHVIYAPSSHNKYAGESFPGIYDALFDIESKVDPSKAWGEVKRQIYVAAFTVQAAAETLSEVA
Source text: Fig. 3 In vitro characterization of [^111In]In-DOTA(GA)-IRDye700DX-PSMA ligands varying in their backbone composition. a Labeling efficiency of [^111In]In-DOTA-PSMA-N01, -N02, -N03, [^111In]In-DOTAGA-PSMA-N064 and -N064inc at a specific activity of either 10 MBq/µg or 30 MBq/µg (n = 2). IC50 values of ligands as determined in competitive binding assays using LS174T-PSMA cells. b Binding and internalization of [^111In]In-DOTA-PSMA-N01, -N02, -N03, [^111In]In-DOTAGA-PSMA-N064 and -N064inc in LS174T PSMA-positive cells. Membrane binding and internalization are corrected for non-specific binding and accumulation, as determined by co-incubation with an excess of 2-PMPA (50 µg). [^111In]In-DOTA-PSMA-617 was added as a positive control. c PSMA-targeted PDT efficacy of ligands in vitro. Cell viability of LS174T-PSMA (PSMA +) and LS174T wildtype (PSMA-) cells following incubation with 30 nM of PSMA-N01, -N02, -N03, -N064, and -N064inc, after either a 100 J/cm^2 (450 mW/cm^2) radiant exposure or no light exposure (dark).

LS174T-PSMA cells = experiment: in vitro targeted PDT assay (CellTiter-Glo); type: cell-based, human; conditions: 30 nM ligand, irradiated with 100 J/cm^2
Description: LS174T wildtype (LS174T-WT) and LS174T-PSMA cells were cultured to confluency in 48-well plates. Cells were incubated (2 h, 5% CO2, 37 °C) with 30-nM PSMA ligand in binding buffer (RPMI 1640 + 0.5% BSA) in triplicate. After washing with PBS, a 0.5-ml binding buffer was added to each well, and cells were irradiated with a NIR light-emitting diode (690 ± 20 nm). The typical forward voltage was 2.6 V creating a power output of 490 mW using 126 individual LED bulbs to ensure homogenous illumination of the area of interest predefined as 5 × 3 cm. The cells were irradiated at NIR radiant exposures of 100 J/cm^2 ([…]) and subsequently incubated for 1 h at 37 °C. Cells that only received the PSMA ligand, only the NIR light, or neither the ligand nor the light were included as controls. Cytotoxic effects of PDT with PSMA ligands were determined with a CellTiter-Glo™ assay (Promega Benelux) according to the manufacturer’s instructions. The binding buffer was replaced with 100-µl fresh binding buffer and 100-µl CellTiter-Glo® 2.0 Assay. Plates were shaken (2 min) and incubated for 10 min at room temperature. Next, luminescence was measured in a plate reader (Tecan Infinite® 200 PRO) to determine the metabolic activity of the cells.

[1] = system: LS174T-PSMA and LS174T wildtype xenografts; experiment: ex vivo biodistribution of 111In-labeled ligands; design: species or system BALB/c nude mice; conditions: 0.3 nmol, 2 h p.i.
Description: (§1) All animal experiments were approved by the institutional Animal Welfare Committee of the Radboud University Medical Center and were conducted in accordance to the guidelines of the Revised Dutch Act on Animal Experimentation. Animal experiments were performed in 8–10 weeks old male BALB/c nude mice (Janvier). The mice were housed in individually ventilated cages (Blue line IVC, 3–5 mice per cage), under standard non-sterile conditions with cage enrichment present. There was free access to chlorophyll-free animal chow (Sniff Voer) and water. Mice were subcutaneously inoculated with 3.0 × 10^6 LS174T-PSMA cells in the right flank and 1.5 × 10^6 LS174T WT cells in the left flank (diluted in 200-µl RPMI 1640 medium). When xenografts were approximately 0.5 cm^3 (10–14 days after injection), mice were block-randomized into groups based on tumor size. The researchers were not blinded for the experimental groups.
(§2) Mice were intravenously injected with 0.3 nmol PSMA ligand, labeled with 10 MBq ^111In (molar activity 33.3 MBq/nmol) in PBS + 0.5% (w/v) BSA. For the ex vivo biodistribution, five groups (one group for each ligand) of four mice were included. Two hours p.i., all mice were euthanized by CO2/O2-asphyxiation. For two mice of each group (2 mice/ligand), background-subtracted fluorescence images were acquired with the IVIS imaging system (Xenogen VivoVision IVIS Lumina II, PerkinElmer), with a 640-nm excitation filter and a Cy5.5 emission filter and an acquisition time of 10 s. Next, µSPECT/CT imaging was performed in the same two mice per group, with a 1.0-mm diameter pinhole mouse collimator tube (U-SPECT II, MILabs). Mice were scanned for 30 min followed by a CT scan for anatomical reference (spatial resolution 160 μm, 615 μA, 65 kV). MILabs reconstruction software was used to reconstruct the µSPECT/CT scans, via an ordered-subset expectation maximization algorithm, energy windows 154–188 keV and 220–270 keV, 3 iterations, 16 subsets, and voxel size of 0.75 mm. SPECT/CT maximum intensity projections (MIPs) were created using the Inveon Research Workplace software (Siemens Preclinical Solutions, version 4.1). NIR fluorescence images were analyzed using Living Image software (PerkinElmer, version 4.2). After imaging, relevant tissues were dissected, weighed, and measured for radioactivity in a gamma-counter (2480 WIZARD^2 Automatic Gamma Counter, PerkinElmer). In addition, a blocking experiment with PSMA-N064 and PSMA-617 was performed. Full experimental procedures and results can be found in the supplementary data (Page 5, Supplementary Fig. 3).

[2] = ex vivo biodistribution of 111In-labeled ligands; design: species or system BALB/c nude mice; conditions: male, BALB/c nude, mouse, iv, 0.3 nmol, total radioactivity, 2 h p.i.; for tissue uptake at 2 h: 10 MBq/mouse, i.v.
Description: as §1, §2

For `C[Si](C)(CCC[N+](CCCS(=O)(=O)[O-])(CCCS(=O)(=O)O)CCCS(=O)(=O)O)O[Si]1(O[Si](C)(C)CCC[N+](CCCS(=O)(=O)[O-])(CCCS(=O)(=O)O)CCCS(=O)(=O)O)n2c3c4ccccc4c2N=C2N=C(N=c4c5c(OCCCOC(=O)NCCCCCC(=O)NCCCC[C@H](NC(=O)CN6CCN(CC(=O)O)CCN(CC(=O)O)CCN(CC(=O)O)CC6)C(=O)NCCCC[C@H](NC(=O)[C@H](CCC(=O)O)NC(=O)c6ccccc6)C(=O)NC[C@H]6CC[C@H](C(=O)N[C@@H](Cc7ccc8ccccc8c7)C(=O)NCCCC[C@H](NC(=O)N[C@@H](CCC(=O)O)C(=O)O)C(=O)O)CC6)cccc5c(n41)=NC1=NC(=N3)c3ccccc31)c1ccccc12` [PSMA-N03], the IC50 (PSMA) was 41.8 nM, the IC50 (PSMA; listed as -N03) was < 50 nM and the cell viability (LS174T-PSMA cells) was 25% ± 4%. The “Biodistribution Kidney” value ([1]; 10 MBq/mouse, i.v., n=4) was 142.4 ± 10.6 %ID/g, the “Biodistribution Tumor+ LS174T-PSMA” value ([1]; 10 MBq/mouse, i.v., n=4) was 19.8 ± 1.9 %ID/g and the “Biodistribution Tumor+ LS174T-PSMA” value ([1]; 10 MBq/mouse, i.v., n=4, listed as N03) was ≥ 20 %ID/g. It also gave a Tumor/Negative tumor ratio [1] of 19.9 ± 6.3, a Tumor/Prostate ratio [1] of 35.1 ± 10.7 and a Tumor/Salivary gland ratio [1] of 35.0 ± 5.0. It also gave a tissue uptake at 2 h ([2]; LS174T wildtype tumor, n=4, read-out: Biodistribution Tumor- LS174T) of 1.1 ± 0.2 %ID/g, a tissue uptake at 2 h ([2]; LS174T-PSMA tumor, n=4, read-out: Biodistribution Tumor+ LS174T-PSMA) of 20 ± 2 %ID/g and a tissue uptake at 2 h ([2]; adrenals, n=4, read-out: Biodistribution Adrenals) of 2.1 ± 0.8 %ID/g. The tissue uptake at 2 h ([2]; blood, n=4, read-out: Biodistribution Blood) was 0.7 ± 0.1 %ID/g, the tissue uptake at 2 h ([2]; bone marrow, n=4, read-out: Biodistribution Bone marrow) was 0.2 ± 0.1 %ID/g and the tissue uptake at 2 h ([2]; bone, n=4, read-out: Biodistribution Bone) was 0.5 ± 0.1 %ID/g. The tissue uptake at 2 h ([2]; duodenum, n=4, read-out: Biodistribution Duodenum) was 0.4 ± 0.03 %ID/g, the tissue uptake at 2 h ([2]; heart, n=4, read-out: Biodistribution Heart) was 0.4 ± 0.04 %ID/g and the tissue uptake at 2 h ([2]; kidney, n=4, read-out: Biodistribution Kidney) was 142 ± 11 %ID/g. It also gave a tissue uptake at 2 h ([2]; liver, n=4, read-out: Biodistribution Liver) of 1.3 ± 0.1 %ID/g, a tissue uptake at 2 h ([2]; lung, n=4, read-out: Biodistribution Lung) of 1.8 ± 0.4 %ID/g and a tissue uptake at 2 h ([2]; muscle, n=4, read-out: Biodistribution Muscle) of 0.2 ± 0.1 %ID/g. The tissue uptake at 2 h ([2]; pancreas, n=4, read-out: Biodistribution Pancreas) was 0.3 ± 0.02 %ID/g, the tissue uptake at 2 h ([2]; prostate, n=4, read-out: Biodistribution Prostate) was 0.6 ± 0.2 %ID/g and the tissue uptake at 2 h ([2]; salivary glands, n=4, read-out: Biodistribution Salivary glands) was 0.6 ± 0.1 %ID/g. The tissue uptake at 2 h ([2]; spleen, n=4, read-out: Biodistribution Spleen) was 1.5 ± 0.4 %ID/g, the tissue uptake at 2 h ([2]; stomach, n=4, read-out: Biodistribution Stomach) was 0.6 ± 0.1 %ID/g and the tissue to tissue ratio at 2 h ([2]; tumor (LS174T-PSMA xenograft) / blood, read-out: Tumor/Blood ratio) was 27 ± 2.9. For the same compound, the tissue to tissue ratio at 2 h ([2]; tumor (LS174T-PSMA xenograft) / kidney, read-out: Tumor/Kidney ratio) was 0.2 ± 0.02, the tissue to tissue ratio at 2 h ([2]; tumor (LS174T-PSMA xenograft) / liver, read-out: Tumor/Liver ratio) was 15.1 ± 1.7 and the tissue to tissue ratio at 2 h ([2]; tumor (LS174T-PSMA xenograft) / spleen, read-out: Tumor/Spleen ratio) was 14.3 ± 4.
